The source of these data is US20060257938A1, “Method of screening for drugs that block ligand binding to a lipid binding protein” (priority 2005, published 2006).

The labels stand for the following.
B1: 119K, 72A (protein, listed as Rattus norvegicus)
chain: AFDGTWKVDRNENYEKFMEKMGINVVKRKLGAHDNLKLTITQEGNKFTVKESSNFRNIDVVFELGVDFAYSAADGTELTGTWTMEGNKLVGKFKRVDNGKELIAVREISGNELIQTYTKEGVEAKRIFKKE
modifications: PEPTIDE (1)...(131) wild-type rat intestinal fatty acid binding protein
B2: 119S, 72A (protein, listed as Rattus norvegicus)
chain: B1 chain with K119S
modifications: PEPTIDE (1)...(131) wild-type rat intestinal fatty acid binding protein
B3: 11C, 72A (protein, listed as Rattus norvegicus)
chain: B1 chain with N11C, K119Y
modifications: PEPTIDE (1)...(131) wild-type rat intestinal fatty acid binding protein
B4: 126F, 72A (protein, listed as Rattus norvegicus)
chain: B1 chain with K119Y, R126F
modifications: PEPTIDE (1)...(131) wild-type rat intestinal fatty acid binding protein
B5: 126E, 72A (protein, listed as Rattus norvegicus)
chain: B1 chain with K119Y, R126E
modifications: PEPTIDE (1)...(131) wild-type rat intestinal fatty acid binding protein
B6: 11G, 72A (protein, listed as Rattus norvegicus)
chain: B1 chain with N11G, K119Y
modifications: PEPTIDE (1)...(131) wild-type rat intestinal fatty acid binding protein
B7: 126D, 72A (protein, listed as Rattus norvegicus)
chain: B1 chain with K119Y, R126D
modifications: PEPTIDE (1)...(131) wild-type rat intestinal fatty acid binding protein
B8: 102F, 72A (protein, listed as Rattus norvegicus)
chain: B1 chain with L102F, K119Y
modifications: PEPTIDE (1)...(131) wild-type rat intestinal fatty acid binding protein
B9: 119T, 72A (protein, listed as Rattus norvegicus)
chain: B1 chain with K119T
modifications: PEPTIDE (1)...(131) wild-type rat intestinal fatty acid binding protein
B10: 126H, 72A (protein, listed as Rattus norvegicus)
chain: B1 chain with K119Y, R126H
modifications: PEPTIDE (1)...(131) wild-type rat intestinal fatty acid binding protein
B11: 119V, 72A (protein, listed as Rattus norvegicus)
chain: B1 chain with K119V
modifications: PEPTIDE (1)...(131) wild-type rat intestinal fatty acid binding protein
B12: 11Y1, 72A (protein, listed as Rattus norvegicus)
chain: B1 chain with N11Y, K119Y
modifications: PEPTIDE (1)...(131) wild-type rat intestinal fatty acid binding protein
B13: 102G, 72A (protein, listed as Rattus norvegicus)
chain: B1 chain with L102G, K119Y
modifications: PEPTIDE (1)...(131) wild-type rat intestinal fatty acid binding protein
B14: 126A, 72A (protein, listed as Rattus norvegicus)
chain: B1 chain with K119Y, R126A
modifications: PEPTIDE (1)...(131) wild-type rat intestinal fatty acid binding protein
B15: 102H, 72A (protein, listed as Rattus norvegicus)
chain: B1 chain with L102H, K119Y
modifications: PEPTIDE (1)...(131) wild-type rat intestinal fatty acid binding protein
B16: 119Q, 72A (protein, listed as Rattus norvegicus)
chain: B1 chain with K119Q
modifications: PEPTIDE (1)...(131) wild-type rat intestinal fatty acid binding protein
B17: 11Y1, L72A (protein, listed as Rattus norvegicus)
chain: B1 chain with N11Y, K119Y
modifications: PEPTIDE (1)...(131) wild-type rat intestinal fatty acid binding protein

Where a chain is given by its changes, count along the chain named. Values joined by “and” are separate entries in the source; they are usually repeats but may differ in a detail not shown here. Equal values may be shown once.

The nature of one assay: Probe fluorescence ratio response to palmitic acid relative to ADIFAB2. Format: binding. The note with it: response relative to ADIFAB2. The source says: (§1) In an alternate preferred embodiment, the protein is rI-FABP that has Ala substituted for Leu at position 72 (rI-FABP-L72A) with the resulting probe named ADIFAB2. […] Other probes useful in embodiments of the invention are shown in Tables 1-6 and are also described in U.S. application Ser. No. 11/085,792, filed Mar. 21, 2005 which is incorporated herein by reference. The indicated substitutions are with reference to the ADIFAB protein of SEQ ID NO: 2.
(§2) ADIFAB2 also has an altered spectral response, making it especially useful for measurements of FFAu in blood samples (Apple et al, Clinical Proteomics, (2004) 1:41-44, U.S. patent application Ser. No. 10/670,958). The wavelengths at the maximum intensities emitted by these fluorescently-labeled I-FABP's in the absence of FFA is about 420 to 480 nm. The emission wavelengths at the maximum intensities emitted by these fluorescently-labeled I-FABP's with FFA bound are between about 495 to 580 nm. Experiments typically involve measuring the fluorescence response within both emission maxima or at wavelengths for which the effect of interfering molecules such as hemoglobin can be eliminated as described in U.S. application Ser. No. 10/670958 and PCT/US2004/030521 and the calculation of the ratio ‘R’ of the two fluorescence intensities. The baseline value for this ratio, measured in the absence of analyte, is designated R0.
(§3) The intensity ratio (“R” value) is determined as follows. The ratio is calculated using the following formula: R=Fλ1/Fλ2 wherein, Fλ1 is the measured fluorescence intensities (intensity of sample with probe present minus intensity of sample without probe present) at wavelength 1 and Fλ2 is the measured fluorescence intensities (intensity of sample with probe present minus intensity of sample without probe present) at wavelength 2. Then, for a given probe, ΔR, the difference in R value between the measurement in the presence of the test compound (agent) and in the absence of the test compound (agent), is calculated as follows: ΔR=R+agent−R0 In some embodiments, the ΔR value may then be compared to some reference, for example, an agent with a known affinity for a given probe, by ΔR/ΔRreference. Measurements of fluorescence intensities are obtained using standard techniques.
Take B1: the “DR/DR PA” value is on record as 0.58.

On to B2, for which the “DR/DR PA” value is 0.37 and 0.373.

B3: the “DR/DR PA” value was 0.80.

In the case of B4, the “DR/DR PA” value is 0.34.

With B5, the “DR/DR PA” value is on record as 0.21.

Turning to B6, the “DR/DR PA” value is 0.61.

Take B7: the “DR/DR PA” value stood at 0.37.

For B8, the “DR/DR PA” value was 0.43 and 0.369.

B9: the “DR/DR PA” value was 0.79.

B10: the “DR/DR PA” value is 0.32.

With B11, the “DR/DR PA” value is 0.57 and 0.480.

Turning to B12, the “DR/DR PA” value was determined as 0.30.

Consider B13, for which the “DR/DR PA” value turned out to be 0.36.

Take B14: the “DR/DR PA” value stood at 1.22.

For the molecule B15, the “DR/DR PA” value is on record as 0.37.

As for B16, the “DR/DR PA” value came to 0.35.

For the molecule B17, the “DR/DR PA” value amounted to 0.25.

Another assay is described as follows: Probe fluorescence ratio response to linoleic acid relative to ADIFAB2. Type of assay: binding. The note with it: response relative to ADIFAB2.
Text: as §1, §2, §3
In the case of B1, the “DR/DR LA” value is given as 0.85.

As to B2, the “DR/DR LA” value is 0.46 and 0.457.

In the case of B3, the “DR/DR LA” value was determined as 0.70.

On to B4, for which the “DR/DR LA” value stood at 0.51.

In the case of B5, the “DR/DR LA” value was found to be 0.34.

In the case of B6, the “DR/DR LA” value came to 0.70.

For B7, the “DR/DR LA” value stood at 0.59.

Turning to B8, the “DR/DR LA” value is 0.73 and 0.657.

B9: the “DR/DR LA” value is listed as 1.22.

In the case of B10, the “DR/DR LA” value worked out at 0.46.

For B11, the “DR/DR LA” value was 1.01 and 0.720.

Regarding B12, the “DR/DR LA” value was determined as 0.33.

Take B13: the “DR/DR LA” value amounted to 0.78.

Take B14: the “DR/DR LA” value is listed as 1.32.

Regarding B15, the “DR/DR LA” value is reported as 0.65.

On to B16, for which the “DR/DR LA” value is listed as 0.58.

Take B17: the “DR/DR LA” value turned out to be 0.32.

A short description of another assay: Probe fluorescence ratio response to arachidonic acid relative to ADIFAB2. Format: binding. The following applies: arachidonic acid; response relative to ADIFAB2.
Text: as §1, §2, §3
As for B1, the “DR/DR AA” value was determined as 0.78.

Regarding B2, the “DR/DR AA” value was 0.78 and 0.781.

Take B3: the “DR/DR AA” value is on record as 0.52.

As for B4, the “DR/DR AA” value is recorded as 0.52.

Consider B5, for which the “DR/DR AA” value came to 0.25.

Turning to B6, the “DR/DR AA” value is 0.63.

As for B7, the “DR/DR AA” value turned out to be 0.44.

Regarding B8, the “DR/DR AA” value is 0.95 and 0.858.

As for B9, the “DR/DR AA” value is given as 1.22.

Regarding B10, the “DR/DR AA” value came out at 0.20.

Take B11: the “DR/DR AA” value is 0.99 and 0.750.

For the molecule B12, the “DR/DR AA” value amounted to 0.52.

With B13, the “DR/DR AA” value was found to be 0.63.

For B14, the “DR/DR AA” value is 1.27.

With B15, the “DR/DR AA” value is 0.52.

As for B16, the “DR/DR AA” value came out at 0.60.

Turning to B17, the “DR/DR AA” value stood at 0.49.

The nature of a further assay: Probe fluorescence ratio response to linolenic acid relative to ADIFAB2. Format: binding. The note with it: response relative to ADIFAB2.
Text: as §1, §2, §3
Take B1: the “DR/DR LNA” value is 0.78.

On to B2, for which the “DR/DR LNA” value is 0.73 and 0.734.

Turning to B3, the “DR/DR LNA” value is listed as 0.64.

With B4, the “DR/DR LNA” value amounted to 0.53.

Consider B5, for which the “DR/DR LNA” value is given as 0.32.

In the case of B6, the “DR/DR LNA” value came to 0.67.

As to B7, the “DR/DR LNA” value turned out to be 0.56.

Take B8: the “DR/DR LNA” value is 0.53 and 0.588.

As to B9, the “DR/DR LNA” value is given as 1.21.

Take B10: the “DR/DR LNA” value is listed as 0.46.

In the case of B11, the “DR/DR LNA” value is 1.00 and 0.710.

Take B12: the “DR/DR LNA” value was found to be 0.31.

In the case of B13, the “DR/DR LNA” value came out at 0.38.

Take B14: the “DR/DR LNA” value is given as 1.36.

As for B15, the “DR/DR LNA” value was 0.63.

For the molecule B16, the “DR/DR LNA” value came to 0.62.

Take B17: the “DR/DR LNA” value is reported as 0.33.

A further assay in a line: Probe fluorescence ratio response to oleic acid relative to ADIFAB2. Format: binding. The note with it: response relative to ADIFAB2.
Text: as §1, §2, §3
Regarding B1, the “DR/DR OA” value is on record as 0.87.

Take B2: the “DR/DR OA” value was 0.71 and 0.714.

B3: the “DR/DR OA” value is recorded as 0.70.

Take B4: the “DR/DR OA” value came to 0.43.

In the case of B5, the “DR/DR OA” value is listed as 0.30.

B6: the “DR/DR OA” value is on record as 0.62.

B7: the “DR/DR OA” value is 0.64.

For the molecule B8, the “DR/DR OA” value was 0.64 and 0.554.

For B9, the “DR/DR OA” value amounted to 1.26.

B10: the “DR/DR OA” value is recorded as 0.43.

Take B11: the “DR/DR OA” value is 1.02 and 0.780.

B12: the “DR/DR OA” value is 0.16.

For the molecule B13, the “DR/DR OA” value is reported as 0.65.

Turning to B14, the “DR/DR OA” value was 1.38.

In the case of B15, the “DR/DR OA” value came to 0.66.

Take B16: the “DR/DR OA” value came to 0.60.

Turning to B17, the “DR/DR OA” value is on record as 0.16.
